Assay results reported in patent publication EP4803548A1 (Beijing Wisdomab Biotechnology Co., Ltd, dated 2026).
Positions count from the first letter of the chain named. Like-named read-outs stand apart in the source and are kept apart here.

T1: CD3D-CD3E-mFc (human; mouse)
T1 construct: also called antigen CD3D-CD3E-mFc
T1 chain 1: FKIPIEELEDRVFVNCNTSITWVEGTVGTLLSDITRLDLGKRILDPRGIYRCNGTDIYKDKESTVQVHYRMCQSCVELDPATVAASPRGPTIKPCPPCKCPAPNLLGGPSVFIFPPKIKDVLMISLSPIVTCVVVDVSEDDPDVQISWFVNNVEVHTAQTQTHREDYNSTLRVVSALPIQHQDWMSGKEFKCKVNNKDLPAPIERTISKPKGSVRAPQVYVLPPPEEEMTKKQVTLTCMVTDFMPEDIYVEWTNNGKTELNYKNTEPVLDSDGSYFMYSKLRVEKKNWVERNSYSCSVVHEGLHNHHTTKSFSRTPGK
T1 chain 2: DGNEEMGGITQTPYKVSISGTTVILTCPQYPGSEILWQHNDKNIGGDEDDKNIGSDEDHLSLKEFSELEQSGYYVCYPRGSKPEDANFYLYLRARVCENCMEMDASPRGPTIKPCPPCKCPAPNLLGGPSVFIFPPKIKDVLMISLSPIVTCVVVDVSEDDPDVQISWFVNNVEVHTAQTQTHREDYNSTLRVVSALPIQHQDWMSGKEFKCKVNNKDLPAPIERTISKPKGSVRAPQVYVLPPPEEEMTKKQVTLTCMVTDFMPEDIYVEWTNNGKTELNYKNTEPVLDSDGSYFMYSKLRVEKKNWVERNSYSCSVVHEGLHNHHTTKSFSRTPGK

B1: N1B5-h4-Fc recombinant protein (humanized anti-HLA-A02/HBsAg complex TCRm antibody N1B5-h4) (Fc fusion)
chain: EVQLVESGGGLVQPGGSLRLSCAASDDTYMTNCMGWFRQAPGKERVGVAAIYTGGGRAVYADSVRGRFTISQDNAKNTVYLQMNSLKPEDTAMYYCAADWLGPDMTDIQVLGALPWFNYWGQGTLVTVSS
B2: N1B5-Fc recombinant protein (anti-HLA-A02/HBsAg complex TCRm antibody N1B5) (Fc fusion, not shown: a dimerising Fc or GST)
chain: B1 chain with E1Q, L11S, P14A, V46E
B3: TCRm×CD3 bispecific antibody 2N1B5+IMCR (bispecific antibody)
chain 1: QVQLVESGGGSVQAGGSLRLSCAASDDTYMTNCMGWFRQAPGKEREGVAAIYTGGGRAVYADSVRGRFTISQDNAKNTVYLQMNSLKPEDTAMYYCAADWLGPDMTDIQVLGALPWFNYWGQGTLVTVSSGGGGSGGGGSGGGGSQVQLVESGGGSVQAGGSLRLSCAASDDTYMTNCMGWFRQAPGKEREGVAAIYTGGGRAVYADSVRGRFTISQDNAKNTVYLQMNSLKPEDTAMYYCAADWLGPDMTDIQVLGALPWFNYWGQGTLVTVSSASERKSSVECPPCPAPEFEGGPSVFLFPPKPKDTLMISRTPEVTCVVVDVSQEDPEVQFNWYVDGVEVHNAKTKPREEQYNSTYRVVSVLTVLHQDWLNGKEYKCKVSNKALPASIEKTISKAKGQPREPQVCTLPPSQEEMTKNQVSLSCAVKGFYPSDIAVEWESNGQPENNYKTTPPVLDSDGSFFLVSKLTVDKSRWQEGNVFSCSVMHEALHNHYTQKSLSLSPGK
chain 2: not shown
B4: TCRm×CD3 bispecific antibody 2N1B5-h4+IMCR (bispecific antibody)
chain 1: B3 chain 1 with Q1E, S11L, A14P, E46V, Q146E, S156L, A159P, E191V
chain 2: not shown

Legend:
[1] = molecular target: T2, HLA-A02 complex presenting … (MIP-H1-01), disulfide trap single-chain trimer
[2] = molecular target: T2, HLA-A02 complex presenting … …; remark: listed apart in the source
[3] = molecular target: T3, HLA-A02/HBsAg348-357 (…) complex on the cell surface (human; human (Homo sapiens) as printed …); test: cell-based or functional assay
[4] = molecular target: T3, HLA-A02/HBsAg348-357 (…) complex on the …; test: cell-based or functional assay; remark: listed apart in the source
[5] = molecular target: T2, HLA-A02 complex presenting … …; test: SPR Biacore T200; method of Section 3.1
[6] = molecular target: T3, HLA-A02/HBsAg348-357 (…) complex on the …; test: cell-based or functional assay; remark: listed apart in the source
[7] = molecular target: T3, HLA-A02/HBsAg348-357 (…) complex on the …; test: cell-based or functional assay; remark: listed apart in the source
CD3D-CD3E-mFc = molecular target: T1, CD3D-CD3E-mFc; test: SPR Biacore T200; method of Section 3.1, CD3D-CD3E-mFc as antigen

| Binder | Kd [1] [nM] | koff [1] [s⁻¹] | kon [1] [M⁻¹ s⁻¹] | Kd [2] [nM] | koff [2] [s⁻¹] | kon [2] [M⁻¹ s⁻¹] | EC50 of killing of HepG2-HBsAg cells by PBMCs (LDH release) [3] [nM] | EC50 of activation of Jurkat-Dual cells by targeting antigen peptide-pulsed T2 cells (QUANTI-Luc) [4] [nM] | Kd [5] [nM] | koff [5] [s⁻¹] | kon [5] [M⁻¹ s⁻¹] | EC50 of activation of Jurkat-Dual cells by targeting HLA-A02+/HBsAg+ tumor cells HepG2-HBsAg (QUANTI-Luc) [6] [nM] | EC50 of killing of antigen peptide-pulsed T2 cells by PBMCs (LDH release) [7] [nM] | Kd (CD3D-CD3E-mFc) [nM] | koff (CD3D-CD3E-mFc) [s⁻¹] | kon (CD3D-CD3E-mFc) [M⁻¹ s⁻¹] |
| --- | --- | --- | --- | --- | --- | --- | --- | --- | --- | --- | --- | --- | --- | --- | --- | --- |
| B1 | 0.191 | 0.000125 | 656000 | – | – | – | – | – | – | – | – | – | – | – | – | – |
| B2 | – | – | – | 0.14 | 9.7e-05 | 692000 | – | – | – | – | – | – | – | – | – | – |
| B3 | – | – | – | – | – | – | 0.00883 | 0.00241 | 0.237 | 0.000145 | 613000 | 0.389 | 0.000278 | 2.96 | 0.000175 | 59200 |
| B4 | – | – | – | – | – | – | 0.00952 | – | 0.531 | 0.00014 | 263000 | – | 0.000209 | 2.04 | 0.000132 | 64700 |
